This is an account of results in patent publication US5614400.

Experiment [1] concerns the target [1-^14 C]16:0-ACP (palmitoyl-acyl carrier protein made with Escherichia coli ACP) (Escherichia coli) (UniProt P0A6A8).
Experiment [2] addresses [1-^14 C]14:0-ACP (myristoyl-acyl carrier protein made with Escherichia coli ACP) (Escherichia coli) (UniProt P0A6A8).

Regarding “100,000×g supernatant of a T. alata endosperm homogenate (soluble Δ^6 16:0-ACP desaturase activity) (pool or library)”, the values for the Δ^6 monounsaturated product, specific activity (pmol/min/mg protein) in experiment [1] and in experiment [2] were 99 and 13, respectively.
